Reference: patent publication US12077763B2, “RNA-based control of powdery mildew” (Greenlight Biosciences, Inc., priority 2021, dated 2024)

System: E. necator
Test: Leaf disc assay, dry inoculum (settling tower), decrease in disease severity / hyphal growth (Example 2)
Conditions: decrease in disease severity (hyphal growth) relative to untreated control, value ± SE; for % decrease =/− SE TP1: time point 1 (untreated control hyphal growth ≥50%); for % decrease =/− SE TP2: time point 2

Molecule | % decrease =/− SE TP1 [%] | % decrease =/− SE TP2 [%]
GS2680 (nucleic acid) sense: UACUAACAAACUGUCCACCAAAAGUAUAUAUAAUUCCUGCAACUGAGGGAGUAGAUCGCUUGCAAAUAAAAUCAAAAUCUAGCAUUCCUUGAACAGCUCUAGGCUGAAGACCAUAGACGAAACAUCUUGUUUUAUCAUGGAAGAGUGUAUGAGUUGCGUGAGGGCUCAAUGGGCGGCUAGGAGCAGCAAACCGACAGAUGUUAUCAUUGGCUGAUUGCCCAACUUUCGUAGUAUCAUUUGGAGUAGCUGAUGGCAUUUUAAAAUAUUACAAGGUCACAGAGUGUAAUUUUGGGCCUGAUUUCUUCUGUAGAGAUGACUCAAGUAGUAAUAUUUAUCUCUUUCAAUGGUGUAGUAUAUUAAUAGUAUACUCGGGAGAGAAAAUGAUGUGAUAAAAAUUA antisense: UAAUUUUUAUCACAUCAUUUUCUCUCCCGAGUAUACUAUUAAUAUACUACACCAUUGAAAGAGAUAAAUAUUACUACUUGAGUCAUCUCUACAGAAGAAAUCAGGCCCAAAAUUACACUCUGUGACCUUGUAAUAUUUUAAAAUGCCAUCAGCUACUCCAAAUGAUACUACGAAAGUUGGGCAAUCAGCCAAUGAUAACAUCUGUCGGUUUGCUGCUCCUAGCCGCCCAUUGAGCCCUCACGCAACUCAUACACUCUUCCAUGAUAAAACAAGAUGUUUCGUCUAUGGUCUUCAGCCUAGAGCUGUUCAAGGAAUGCUAGAUUUUGAUUUUAUUUGCAAGCGAUCUACUCCCUCAGUUGCAGGAAUUAUAUAUACUUUUGGUGGACAGUUUGUUAGUA | 12 ± 4 | 11 ± 5
GS2684 (nucleic acid) sense: UUGGCAGCUCGCCAUUUCUUAUCAAAGAGAUACCUAAAUGAUAAACUUAAAAUACUUGCAGUGAAUAUAUCUGCUAGAGUAAGACGCUCUCCAACUAAGAAUGUGUUGUUUUGAAGAGUAUCCUCAAAAAUUUGAGCAUAAUCGAUUGUUUUUUUGACACCUUCAUCAUAAACCUUUUUAUUGUAUGCGACAAUACCAAAAAAAGGAUAAAGCCAGCUGGCAUAGCAGUUACUAAUAUCUUGAUUGACAAAAGACAUCCACUUUAAAAUAGAGGCAUAAGUCUAAUUAUGAAAGUCCACACGGAGUGUUAAGACAGGGACUGUUUUAUGUCAAGGAAAAUUUUUCAACUGAGAGAGCUUAGCAUACUCCUGCUUGGUUUU antisense: AAAACCAAGCAGGAGUAUGCUAAGCUCUCUCAGUUGAAAAAUUUUCCUUGACAUAAAACAGUCCCUGUCUUAACACUCCGUGUGGACUUUCAUAAUUAGACUUAUGCCUCUAUUUUAAAGUGGAUGUCUUUUGUCAAUCAAGAUAUUAGUAACUGCUAUGCCAGCUGGCUUUAUCCUUUUUUUGGUAUUGUCGCAUACAAUAAAAAGGUUUAUGAUGAAGGUGUCAAAAAAACAAUCGAUUAUGCUCAAAUUUUUGAGGAUACUCUUCAAAACAACACAUUCUUAGUUGGAGAGCGUCUUACUCUAGCAGAUAUAUUCACUGCAAGUAUUUUAAGUUUAUCAUUUAGGUAUCUCUUUGAUAAGAAAUGGCGAGCUGCCAA | 31 ± 4 | 18 ± 4
ES49: dsRNA trigger SEQ ID NO 112; gene target Hypotethical effector (nucleic acid) DNA: ATGCGTTTCATCATAGGAGCTGTCGTCTCTTCACTCATTTTGTCGCCAATTTCAGTGCTTTCTATGGCGGCTAGTAATGACTCTACCGAAGCTGCAGCGCATATCATAAATGATTCTATACTAGAAGATGTTTCGAACGTTGCAGATTTCGACTGGTCTTCAACGTCATATCAAGGCCTAGAGAAAAGATTTTGTTTCAGACGAGGATGCAAGGAAGAAAAGCTCAAGAGGACATCAGGTTTCCAATGCAAAAAGAAGTACATCAGCTCGGAGAAAATTGAGAGAGCAAAAGCCGCTGGCTGTCCGGAAATCAAAAAAAATAAGCAGCGATCCGCTTTTCCTTCTCTCTACACTGCATCCGACTTTGCTGTTCCAGGTCCTTACCTAGAATGGCCGATCAGCCGCAATGGAAGGTTTTGGAACAAATTGAGTAAGGGCAAGTACCGTATCATCATGACCAAAAGCTGCAAGGTGG | 9 ± 1 | 6 ± 3
GS2732 (nucleic acid) sense: GGAAAAUGUGAGUUGCCGCCAUCGAUAAUUAUGUCUCCUUGAUCGAGGAAUGGCAAUAAUGUUUCAAUAAAAUCAUCAACAGGCUUUCCAGCCAUGACAAGCAGCAUAAUACGACGUGGUUUUUUUAGUUUACUCACAAAUUCCUGGAUAGAACGAGCACCUUCAAUAGAUUUCCCUUUUGCCUCAUUUUCAAGAAAGUGGUCUACCUUAGCUACAGUUCGAUUAUAUGCAAUAACAUUAAAUCCAUGGUCUGCAGCAUUCAGAAUUAGAUUCUGCCCCAUGACAGCUAGACCGAUAAGGCCAAAGUCUCCUGUAGCAGCACUCAUAUUUUUUUGAUUAUAAAUUUAGAAGCCCAAAGACUGGAGCUUAUAUGGAGAACAGAGAUUACACAGAUGGGA antisense: UCCCAUCUGUGUAAUCUCUGUUCUCCAUAUAAGCUCCAGUCUUUGGGCUUCUAAAUUUAUAAUCAAAAAAAUAUGAGUGCUGCUACAGGAGACUUUGGCCUUAUCGGUCUAGCUGUCAUGGGGCAGAAUCUAAUUCUGAAUGCUGCAGACCAUGGAUUUAAUGUUAUUGCAUAUAAUCGAACUGUAGCUAAGGUAGACCACUUUCUUGAAAAUGAGGCAAAAGGGAAAUCUAUUGAAGGUGCUCGUUCUAUCCAGGAAUUUGUGAGUAAACUAAAAAAACCACGUCGUAUUAUGCUGCUUGUCAUGGCUGGAAAGCCUGUUGAUGAUUUUAUUGAAACAUUAUUGCCAUUCCUCGAUCAAGGAGACAUAAUUAUCGAUGGCGGCAACUCACAUUUUCC |  | 18 ± 10
GS2804 (nucleic acid) sense: UUUUAAAGCUAUGUAUCCUCAAGUAACAGAAUUAGAAAACCUAGUUUUCAAAUUGAGAUUUUGGAAAAAAUCUAACAACCACUUCACUUGGCUCCAUCAAUUUUGGAAAUAUAACUUAGGAGAUCUAAAACACGGCGAGAGUAACCCCAUUCAUUAUCAUACCAUGAUACGAGUUUGACAAAGUUGUCAUUGAGCGAGAUUCCAGCUUUCGCGUCGAAAAUGGAUGAGUGAUUAUCACCGAUUAAAUCAGUUGAAACGAUGUCAUCCUCAGUAUAAGAAAGUAUGCCUUUUAAUUCACCAUUGGCAGCCUCCUUGAUAGCAGCCUUAAUUUGGUCAUAAGUAGCACCCUUUCCAAUGCGGCAUGUUAAGUCAACAACGGAAACAUUAGCAGUGGGUA antisense: UACCCACUGCUAAUGUUUCCGUUGUUGACUUAACAUGCCGCAUUGGAAAGGGUGCUACUUAUGACCAAAUUAAGGCUGCUAUCAAGGAGGCUGCCAAUGGUGAAUUAAAAGGCAUACUUUCUUAUACUGAGGAUGACAUCGUUUCAACUGAUUUAAUCGGUGAUAAUCACUCAUCCAUUUUCGACGCGAAAGCUGGAAUCUCGCUCAAUGACAACUUUGUCAAACUCGUAUCAUGGUAUGAUAAUGAAUGGGGUUACUCUCGCCGUGUUUUAGAUCUCCUAAGUUAUAUUUCCAAAAUUGAUGGAGCCAAGUGAAGUGGUUGUUAGAUUUUUUCCAAAAUCUCAAUUUGAAAACUAGGUUUUCUAAUUCUGUUACUUGAGGAUACAUAGCUUUAAAA | 32 ± 5 | 10 ± 8
GS3295 (nucleic acid) sense: UCAUCUUUUGCCGCUCUUUAUCAUGAUCUUGAUAUGGGAUUUACACCGAUCAACUUUACAUUUUACUGGGCACCUCUACCUUGGAAUCGUGCUCGUGAUCAUGCCCAAAGAACUGUUGCUAGGACGAACCUCGCUCCAAGGGGGCUUUAUGGGAAUCUGCCUCGUAGUAUAAAGUUCUGCAGCUGGCUCUACGGAUUGCAUCUACAACAACUACAACAUCAUCAUCAUCAUCAUCUUCAUCUUCAUCUUC antisense: GAAGAUGAAGAUGAAGAUGAUGAUGAUGAUGAUGUUGUAGUUGUUGUAGAUGCAAUCCGUAGAGCCAGCUGCAGAACUUUAUACUACGAGGCAGAUUCCCAUAAAGCCCCCUUGGAGCGAGGUUCGUCCUAGCAACAGUUCUUUGGGCAUGAUCACGAGCACGAUUCCAAGGUAGAGGUGCCCAGUAAAAUGUAAAGUUGAUCGGUGUAAAUCCCAUAUCAAGAUCAUGAUAAAGAGCGGCAAAAGAUGA | 33 ± 6 | 26 ± 8
GS2799 (nucleic acid) sense: UAGCAACGGGACGUCCACUUUGUACUCUUACAGCUUCACGUGUAUUAUCAAUCACUGAUUGAUGGUACUCAUGAGAGCCAUGAGAAAAAUUCAUACGGACAACAUUCAGACCAGCUCUUCGAAGUCCAUUUAAGGCCUCGACAUUGUUAGUUUUGGGGCCAAUAGUACAGAUAAUCGAGGUUCGACGAUAAUUCUUAGAGGUGGCAUACUCAGUGUCAAGUUGUGAUAGCCAUUCAAUGCGAGUAGAGCUGGUUAGGUGAUUCAUAGCUGAAACCAUAUUUUGAUCUAAUGAGAACUUUUAUUUGAUGUGAACGUAAAUAGUUGAGGAUGUGUAAAGUUGAGGAGAGAGUUGGCCAAAGAUACUCUUUGAGGGUAGCAAAUUUCGUUUAUCUUAUUAU antisense: AUAAUAAGAUAAACGAAAUUUGCUACCCUCAAAGAGUAUCUUUGGCCAACUCUCUCCUCAACUUUACACAUCCUCAACUAUUUACGUUCACAUCAAAUAAAAGUUCUCAUUAGAUCAAAAUAUGGUUUCAGCUAUGAAUCACCUAACCAGCUCUACUCGCAUUGAAUGGCUAUCACAACUUGACACUGAGUAUGCCACCUCUAAGAAUUAUCGUCGAACCUCGAUUAUCUGUACUAUUGGCCCCAAAACUAACAAUGUCGAGGCCUUAAAUGGACUUCGAAGAGCUGGUCUGAAUGUUGUCCGUAUGAAUUUUUCUCAUGGCUCUCAUGAGUACCAUCAAUCAGUGAUUGAUAAUACACGUGAAGCUGUAAGAGUACAAAGUGGACGUCCCGUUGCUA | 31 ± 5 | 20 ± 8
GS2685 (nucleic acid) sense: GUCUCAUAUCACGAACAGCGAAGCGACCUAAUGGAGGAUAACUUGAAAAUGACUCAACACACAUAGGUUUAGAUGGAAUCAUUUUAACAAUUGCUGCGUCACCAGAUUUAACAAAUUUUGGAGUUGCCUCAAUAGACUUUCCAGUACGACGAUCAAUUUUUUCAAGAAGUUCUGCAAAUUUGCAAGCAAUGUGAGCCGUAUGACAAUCAAGUACAGGUGCGUAACCAGCUCCAAUUUGACCUGGGUGGUUUAACACGAUAACUUGUGCGGUAAAAUGCUCGGCACCCUUAGGGGGGUCAUUCUUAGAAUCACCACAAACAUUACCACGACGGAUUUCUUUCACCGAAACGUUCUUUACAUUGAAGCCAA antisense: UUGGCUUCAAUGUAAAGAACGUUUCGGUGAAAGAAAUCCGUCGUGGUAAUGUUUGUGGUGAUUCUAAGAAUGACCCCCCUAAGGGUGCCGAGCAUUUUACCGCACAAGUUAUCGUGUUAAACCACCCAGGUCAAAUUGGAGCUGGUUACGCACCUGUACUUGAUUGUCAUACGGCUCACAUUGCUUGCAAAUUUGCAGAACUUCUUGAAAAAAUUGAUCGUCGUACUGGAAAGUCUAUUGAGGCAACUCCAAAAUUUGUUAAAUCUGGUGACGCAGCAAUUGUUAAAAUGAUUCCAUCUAAACCUAUGUGUGUUGAGUCAUUUUCAAGUUAUCCUCCAUUAGGUCGCUUCGCUGUUCGUGAUAUGAGAC | 23 ± 0 | 15 ± 0
